The record followed here is US20210230263A1 (BIOATLA, published 2021).

For test [1], the target named is T1, human IL-22 (human, UniProt Q9GZX6 34-179).
T1 sequence (looked up): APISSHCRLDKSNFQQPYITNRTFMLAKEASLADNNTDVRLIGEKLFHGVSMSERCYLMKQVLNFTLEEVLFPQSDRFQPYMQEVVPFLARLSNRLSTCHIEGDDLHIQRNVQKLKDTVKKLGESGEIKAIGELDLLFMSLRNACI
Briefly: cell-based or functional assay.

Test [2] deals with T1, human IL-22. Briefly: affinity ELISA on hIL22, mAb concentration at 50% max signal.
For the next test, the target named is T2, human IL20 (human, UniProt Q9NYY1 25-176).
T2 sequence (looked up): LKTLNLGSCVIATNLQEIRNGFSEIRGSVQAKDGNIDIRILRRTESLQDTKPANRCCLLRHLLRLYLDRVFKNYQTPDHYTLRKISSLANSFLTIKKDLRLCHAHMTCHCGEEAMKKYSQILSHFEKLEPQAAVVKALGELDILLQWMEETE
Briefly: ELISA on coated antigen (1 ug/ml), anti-hIgG-HRP, OD450.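 Also: specificity check of antibodies applied at 100 ng/ml to wells bearing human or mouse IL-22, related cytokines or an unrelated control antigen.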

The target of another test is T3, human IL24 (human, UniProt Q13007 52-206, limits assumed).
T3 sequence (looked up): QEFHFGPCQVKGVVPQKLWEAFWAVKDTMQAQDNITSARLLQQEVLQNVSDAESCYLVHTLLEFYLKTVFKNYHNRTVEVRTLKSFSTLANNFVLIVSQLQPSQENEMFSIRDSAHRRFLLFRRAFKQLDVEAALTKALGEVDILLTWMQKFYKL
Described as above.

Another test addresses T4, INF-γ (Homo sapiens (Human), UniProt P01579 24-161).
T4 sequence: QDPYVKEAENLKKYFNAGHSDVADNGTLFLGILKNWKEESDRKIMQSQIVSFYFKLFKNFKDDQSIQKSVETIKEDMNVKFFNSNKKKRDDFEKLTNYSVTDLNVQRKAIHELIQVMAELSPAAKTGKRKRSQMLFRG
The description is as above.

In the next test the target is INF-λ1 (Homo sapiens (Human), UniProt Q8IU54 20-200). Described as above.
In another test the target is T5, human IL19 (human, UniProt Q9UHD0 25-177).
T5 sequence (looked up): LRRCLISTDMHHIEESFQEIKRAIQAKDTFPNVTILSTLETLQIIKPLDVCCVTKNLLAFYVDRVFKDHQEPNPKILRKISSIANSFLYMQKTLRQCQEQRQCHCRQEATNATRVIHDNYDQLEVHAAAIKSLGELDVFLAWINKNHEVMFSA
The description is as above.

The target of the next test is T6, human IL26 (human, UniProt Q9NPH9 22-171, limits assumed).
T6 sequence (looked up): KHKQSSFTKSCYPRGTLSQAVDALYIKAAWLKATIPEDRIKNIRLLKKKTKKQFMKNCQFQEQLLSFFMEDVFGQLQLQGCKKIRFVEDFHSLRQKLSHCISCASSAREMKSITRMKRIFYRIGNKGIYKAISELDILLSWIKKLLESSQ
Described as above.

The target in test [3] is T7, mouse IL-22 (mouse, UniProt Q9JJY9 34-179).
T7 construct: also called mIL-22; mIL22
T7 sequence (looked up): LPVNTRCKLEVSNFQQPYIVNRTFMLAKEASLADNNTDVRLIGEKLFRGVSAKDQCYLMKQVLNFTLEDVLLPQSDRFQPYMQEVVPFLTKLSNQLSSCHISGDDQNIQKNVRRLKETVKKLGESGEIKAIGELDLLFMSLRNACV
Described as above.
Procedure: (§1) Plates were coated with 100 μl antigens at a concentration of 1 μg/ml. The plates were exposed to the antibodies at a concentration of 100 ng/ml. The bound antibodies were detected with anti-hIgG-HRP by the ELISA assay.

Test [4] concerns the target T7, mouse IL-22. Briefly: affinity ELISA on mIL22, mAb concentration at 50% max signal (second row of the same name).
Test [5] addresses T7, mouse IL-22. Briefly: affinity ELISA on mIL22, mAb concentration at 50% max signal.
Test [6] has as its target T1, human IL-22. The experiment in a line: affinity ELISA on hIL22, mAb concentration at 50% max signal (second row of the same name).
Test [7] addresses IL-22 (CXCL1 assay in HT29 cells). The experiment in a line: cell-based or functional assay.
In test [8] the target is T7, mouse IL-22. The experiment in a line: cell-based or functional assay.
Test [9] concerns the target T1, human IL-22. Briefly: SPR (SierraSensors SPR-2), hIL-22 immobilized on chip, antibody injected, Langmuir 1:1 model.
Procedure: (§2) The affinity of the 10 antibodies of Table 1 was measured by Surface Plasma Resonance (SPR) using a capture assay on a SPR-2 instrument (SierraSensiors, Hamburg, Germany). The antigens hIL-22 and mIL-22 were immobilized on chips. The running buffer for the assay contained 10 mM HEPES with a pH of 7.4, 500 mM NaCl, and 0.05% TWEEN® 20. […] The off-rate was measured for 6 minutes. Binding constants were calculated using the curve fitting software Analyzer2 (Sierra Sensors). Sensorgrams were analyzed with the instrument specific software and with BIAevaluation 4.1 software. The binding data were analyzed using the Langmuir 1:1 model (human IL-22) or a model for a heterogeneous ligand (mouse IL-220).
Test [10] concerns the target IL-22 (CXCL1 assay in HT29 cells). Briefly: cell-based or functional assay. This is another data set of the same source.
The target in test [11] is T7, mouse IL-22. The experiment in a line: SPR (SierraSensors SPR-2), mIL-22 immobilized on chip, antibody injected, heterogeneous ligand model.
Procedure: as §2

Residue numbers refer to the chain shown, from its start.

Sequence of INF-λ1 (Q8IU54 20-200 limits assumed): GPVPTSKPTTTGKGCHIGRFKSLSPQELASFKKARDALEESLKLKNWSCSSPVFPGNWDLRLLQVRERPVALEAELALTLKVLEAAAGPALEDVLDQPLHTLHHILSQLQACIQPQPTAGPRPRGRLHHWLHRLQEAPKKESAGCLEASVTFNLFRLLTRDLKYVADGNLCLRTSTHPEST
Procedure for INF-γ: as §1
Procedure for INF-λ1: as §1
Procedure for human IL19: as §1
Procedure for human IL20: as §1
Procedure for human IL24: as §1
Procedure for human IL26: as §1

B1: hum10 (antibody, V domains shown)
VH: QVQLVQSGAEVKKPGASVKVSCKASGYIFTSYWIHWIRQPPGKGLEWIGRIYPGTGNTYYNEKFKGRVTISADKSISTAYLQWSSLKASDTAMYYCARSYDSSCAYWGQGTLVTVSS
VL: AIQLTQSPSSLSASVGDRVTITCSASSSVSYMHWYLQKPGQSPQLLIYETSKLASGVPSRFSGSGSGTDFTFTISSLEAEDAATYYCQQWSSNPYITFGQGTKVEIKR
notes: Humanized monoclonal antibody derived from murine 3C3; also called parent antibody hum10; humanized 3C3
For the molecule B1, the “STAT3 Phosphorylation; hIL22 % inhibition mAb [0.73 nM]” value with human IL-22 [1] stood at 7%. This molecule also displayed an EC50 with human IL-22 [2] of 2.22 nM. Further, the binding result with human IL20, with human IL24, with INF-γ, in the test with INF-λ1, in the test with human IL19 and with human IL26 was “no binding (tested: 100 ng/ml)” in each case. For the same molecule, in the test with mouse IL-22 [3], the binding result is reported as “no binding (tested: 100 ng/ml)”.

B2: CPS-02 (antibody, V domains shown)
VH: B1 VH with T30R, N57R, C104V
VL: B1 VL with E49K, S51R
notes: Mutant of humanized hum10, whole antibody expressed in CHO cells; also called CPS-hit-02; CSP02
On to B2, for which the EC50 with mouse IL-22 [4] was determined as 0.019 nM; in the test with mouse IL-22 [5], 0.042 nM; with human IL-22 [6] it was 0.054 nM; with human IL-22 [2], 0.027 nM. Further, in test [7], the “CXCL-1 Assay (IC50 [pM]) double data points 02122015” value came out at 131 pM. The “CXCL-1 Assay (IC50 [pM]) single data points 02052015” value in test [7] came to 197 pM. Besides, in the test with human IL-22 [1], the “STAT3 Phosphorylation; hIL22 % inhibition mAb [0.73 nM]” value amounted to 33.8%. Moreover, the “Acute Phase response 5 µg mIL22 and 5 µg mAb (% signal reduction), molar ratio mIL22: mAb = 4.5:1 (serum amyloid in mice)” value with mouse IL-22 [8] was 81%. Also, the Kd with human IL-22 [9] was 0.025 nM; with mouse IL-22 [11], 3.28 nM. The koff with human IL-22 [9] amounted to 4.67e-05 s⁻¹; with mouse IL-22 [11], 0.000545 s⁻¹. Moreover, the “IC50 (parameter C of the log-logit fit y=(A-D)/(1+(x/C)^B)+D) of inhibition of IL-22-induced CXCL1 production in HT29 cells” value in test [10] was determined as 29.5 ng/ml. The binding result with human IL20, in the test with human IL24, with INF-γ, with INF-λ1, with human IL19 and in the test with human IL26 was “no binding (tested: 100 ng/ml)” each time.
